Reference: article PMC2709796

Target: human LRP purified from placenta (human)
Assay: SPR

Kd: 36.5 nM | koff: 0.00015 s⁻¹ | kon: 4110 M⁻¹ s⁻¹
B1: hexa-His-tagged fragment of sorLA including the YWTD-repeated β-propeller, the single EGF-domain and the 11 CR-domains (residues 728-1526) (domain or fragment)
chain: YRKISGDTCSGGDVEARLEGELVPCPLAEENEFILYAVRKSIYRYDLASGATEQLPLTGLRAAVALDFDYEHNCLYWSDLALDVIQRLCLNGSTGQEVIINSGLETVEALAFEPLSQLLYWVDAGFKKIEVANPDGDFRLTIVNSSVLDRPRALVLVPQEGVMFWTDWGDLKPGIYRSNMDGSAAYHLVSEDVKWPNGISVDDQWIYWTDAYLECIERITFSGQQRSVILDNLPHPYAIAVFKNEIYWDDWSQLSIFRASKYSGSQMEILANQLTGLMDMKIFYKGKNTGSNACVPRPCSLLCLPKANNSRSCRCPEDVSSSVLPSGDLMCDCPQGYQLKNNTCVKQENTCLRNQYRCSNGNCINSIWWCDFDNDCGDMSDERNCPTTICDLDTQFRCQESGTCIPLSYKCDLEDDCGDNSDESHCEMHQCRSDEYNCSSGMCIRSSWVCDGDNDCRDWSDEANCTAIYHTCEASNFQCRNGHCIPQRWACDGDTDCQDGSDEDPVNCEKKCNGFRCPNGTCIPSSKHCDGLRDCSDGSDEQHCEPLCTHFMDFVCKNRQQCLFHSMVCDGIIQCRDGSDEDAAFAGCSQDPEFHKVCDEFGFQCQNGVCISLIWKCDGMDDCGDYSDEANCENPTEAPNCSRYFQFRCENGHCIPNRWKCDRENDCGDWSDEKDCGDSHILPFSTPGPSTCLPNYYRCSSGTCVMDTWVCDGYRDCADGSDEEACPLLANVTAASTPTQLGRCDRFEFECHQPKTCIPNWKRCDGHQDCQDGRDEANCPTHSTLTCMSREFQCEDGEA
